Measured values published in patent publication US20200024330A1.

Legend:
Assay in all cases: cell-based or functional assay
[1] = molecular target: HIV-1 Env of isolate MG RM-A-008 (pseudovirus) (HIV-1)
[2] = molecular target: HIV-1 Env of isolate MGRM-AE-005 (pseudovirus) (HIV-1)
[3] = molecular target: HIV-1 Env of isolate 93UG077 (pseudovirus) (HIV-1)
[4] = molecular target: HIV-1 Env of isolate MG RM-A-010 (pseudovirus) (HIV-1)
[5] = molecular target: HIV-1 Env of isolate 94 KE 105 (pseudovirus) (HIV-1)
[6] = molecular target: HIV-1 Env of isolate 92UG005 (subtype D), on pseudovirus (HIV-1)
[7] = molecular target: HIV-1 Env of isolate MGRM-Chronic-B-002 (HIV-1)
[8] = molecular target: HIV-1 Env of isolate VLGCA1 (pseudovirus) (HIV-1)
[9] = molecular target: HIV-1 Env of isolate 98CN006 (subtype CRF08 BC), on pseudovirus (HIV-1)
[10] = molecular target: HIV-1 Env of isolate MGRM-AE-003 (pseudovirus) (HIV-1)
[11] = molecular target: HIV-1 Env of isolate 92RW008 (clade A), on pseudovirus (HIV-1)
[12] = molecular target: HIV-1 Env of isolate 92UG001 (subtype D), on pseudovirus (HIV-1)
[13] = molecular target: HIV-1 Env of isolate MGRM-D-003 (subtype D), on pseudovirus (HIV-1)
[14] = molecular target: HIV-1 Env of isolate 93WR029 (pseudovirus) (HIV-1)
[15] = molecular target: HIV-1 Env of isolate 92UG046 (subtype D), on pseudovirus (HIV-1)
[16] = molecular target: HIV-1 Env of isolate MG RM-A-007 (pseudovirus) (HIV-1)
[17] = molecular target: HIV-1 Env of isolate MGRM-AE-002 (pseudovirus) (HIV-1)
[18] = molecular target: HIV-1 Env of isolate CAAN.A2 (HIV-1)
[19] = molecular target: HIV-1 Env of isolate MGRM-AE-004 (pseudovirus) (HIV-1)
[20] = molecular target: HIV-1 Env of isolate JRFL (HIV-1)
[21] = molecular target: HIV-1 Env of isolate 92UG031 (pseudovirus) (HIV-1)
[22] = molecular target: HIV-1 Env of isolate 94UG103 (pseudovirus) (HIV-1)
[23] = molecular target: HIV-1 Env of isolate MG RM-A-006 (pseudovirus) (HIV-1)
[24] = molecular target: HIV-1 Env of isolate MGRM-Chronic-B-001 (HIV-1)
[25] = molecular target: HIV-1 Env of isolate MGRM-Chronic-B-003 (HIV-1)
[26] = molecular target: HIV-1 Env of isolate MGRM-Chronic-B-004 (HIV-1)
[27] = molecular target: HIV-1 Env of isolate 92UG024 (subtype D), on pseudovirus (HIV-1)
[28] = molecular target: HIV-1 Env of isolate 92TH021 (pseudovirus) (HIV-1)
[29] = molecular target: HIV-1 Env of isolate 6535.3 (HIV-1)
[30] = molecular target: HIV-1 Env of isolate CMU02 (pseudovirus) (HIV-1)
[31] = molecular target: HIV-1 Env of isolate 92WR020 (pseudovirus) (HIV-1)
[32] = molecular target: HIV-1 Env of isolate 92RW009 (clade A), on pseudovirus (HIV-1)
[33] = molecular target: HIV-1 Env of isolate MG RM-A-012 (pseudovirus) (HIV-1)
[34] = molecular target: HIV-1 Env of isolate 92WR026 (pseudovirus) (HIV-1)
[35] = molecular target: HIV-1 Env of isolate 98CN009 (subtype CRF07_BC), on pseudovirus (HIV-1)
[36] = molecular target: HIV-1 Env of isolate MG RM-A-013 (pseudovirus) (HIV-1)
[37] = molecular target: HIV-1 Env of isolate 92UG037 (pseudovirus) (HIV-1)
[38] = molecular target: HIV-1 Env of isolate 92UG114 (subtype D), on pseudovirus (HIV-1)
[39] = molecular target: HIV-1 Env of isolate APV_17 (HIV-1)
[40] = molecular target: HIV-1 Env of isolate APV_6 (HIV-1)
[41] = molecular target: HIV-1 Env of isolate 92BR020 (HIV-1)
[42] = molecular target: HIV-1 Env of isolate MG RM-A-014 (pseudovirus) (HIV-1)
[43] = molecular target: HIV-1 Env of isolate MGRM-D-004 (subtype D), on pseudovirus (HIV-1)
[44] = molecular target: HIV-1 Env of isolate MGRM-D-008 (subtype D), on pseudovirus (HIV-1)
[45] = molecular target: HIV-1 Env of isolate MGRM-AE-001 (pseudovirus) (HIV-1)
[46] = molecular target: HIV-1 Env of isolate 92WR024 (pseudovirus) (HIV-1)
[47] = molecular target: HIV-1 Env of isolate MG RM-A-009 (pseudovirus) (HIV-1)
[48] = molecular target: HIV-1 Env of isolate 92WR021 (pseudovirus) (HIV-1)
[49] = molecular target: HIV-1 Env of isolate MGRM-D-005 (subtype D), on pseudovirus (HIV-1)
[50] = molecular target: HIV-1 Env of isolate 93TH305 (HIV-1)
[51] = molecular target: HIV-1 92BR020 envelope glycoprotein (Env) on pseudovirus (HIV-1)
[52] = molecular target: HIV-1 Env of isolate MGRM-Chronic-B-008 (HIV-1)
[53] = molecular target: HIV-1 Env of isolate MGRM-D-002 (subtype D), on pseudovirus (HIV-1)
[54] = molecular target: HIV-1 Env of isolate MG RM-A-005 (pseudovirus) (HIV-1)
[55] = molecular target: HIV-1 92RW020 envelope glycoprotein (Env) on pseudovirus (HIV-1)
[56] = molecular target: HIV-1 Env of isolate APV_13 (HIV-1)
[57] = molecular target: HIV-1 Env of isolate MGRM-AE-006 (pseudovirus) (HIV-1)
[58] = molecular target: HIV-1 Env of isolate MG RM-A-011 (pseudovirus) (HIV-1)
[59] = molecular target: HIV-1 Env of isolate MGRM-D-001 (subtype D), on pseudovirus (HIV-1)

Sequence of 4980_N08 (PGT-143) (antibody) (VH): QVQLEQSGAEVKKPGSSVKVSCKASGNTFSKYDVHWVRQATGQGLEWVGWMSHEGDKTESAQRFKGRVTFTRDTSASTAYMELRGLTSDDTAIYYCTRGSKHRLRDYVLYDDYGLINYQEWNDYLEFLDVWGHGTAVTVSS
Sequence of 4980_N08 (PGT-143) (antibody) (VL): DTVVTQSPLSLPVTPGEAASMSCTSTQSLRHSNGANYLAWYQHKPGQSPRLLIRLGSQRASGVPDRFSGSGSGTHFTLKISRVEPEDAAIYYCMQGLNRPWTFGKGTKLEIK

Work on 4980_N08 (PGT-143) (antibody) yielded an IC50 (µg/mL), pseudovirus neutralization [1] greater than 50 µg/mL, an IC50 (µg/mL), pseudovirus neutralization [2] greater than 50 µg/mL and an IC50 (µg/mL), pseudovirus neutralization [3] greater than 50 µg/mL. The IC50 (µg/mL), pseudovirus neutralization [4] was 0.019 µg/mL, the IC50 (µg/mL), pseudovirus neutralization [5] was 0.368 µg/mL and the IC50, pseudovirus neutralization [6] was greater than 50 µg/mL. It also gave an IC50 [7] greater than 50 µg/mL, an IC50 (µg/mL), pseudovirus neutralization [8] of 17.4 µg/mL and an IC50, pseudovirus neutralization [9] greater than 50 µg/mL. For the same substance, the IC50 (µg/mL), pseudovirus neutralization [10] was greater than 50 µg/mL, the IC50, single-round pseudovirus neutralization [11] was 0.385 µg/mL and the IC50, pseudovirus neutralization [12] was greater than 50 µg/mL. For the same substance, the IC50, pseudovirus neutralization [13] was greater than 50 µg/mL, the IC50 (µg/mL), pseudovirus neutralization [14] was 0.053 µg/mL and the IC50, pseudovirus neutralization [15] was greater than 50 µg/mL. For the same substance, the IC50 (µg/mL), pseudovirus neutralization [16] was greater than 50 µg/mL, the IC50 (µg/mL), pseudovirus neutralization [17] was greater than 50 µg/mL and the IC50 [18] was greater than 50 µg/mL. For the same substance, the IC50 (µg/mL), pseudovirus neutralization [19] was 0.002 µg/mL, the IC50 [20] was greater than 50 µg/mL and the IC50 (µg/mL), pseudovirus neutralization [21] was 0.095 µg/mL. For the same substance, the IC50 (µg/mL), pseudovirus neutralization [22] was greater than 50 µg/mL, the IC50 (µg/mL), pseudovirus neutralization [23] was greater than 50 µg/mL and the IC50 [24] was greater than 50 µg/mL. It also gave an IC50 [25] of 0.854 µg/mL, an IC50 [26] of 0.395 µg/mL and an IC50, pseudovirus neutralization [27] greater than 50 µg/mL. For the same substance, the IC50 (µg/mL), pseudovirus neutralization [28] was 0.003 µg/mL, the IC50 [29] was greater than 50 µg/mL and the IC50 (µg/mL), pseudovirus neutralization [30] was greater than 50 µg/mL. The IC50 (µg/mL), pseudovirus neutralization [31] was greater than 50 µg/mL, the IC50, single-round pseudovirus neutralization [32] was 0.01 µg/mL and the IC50 (µg/mL), pseudovirus neutralization [33] was greater than 50 µg/mL. For the same substance, the IC50 (µg/mL), pseudovirus neutralization [34] was 5.36 µg/mL, the IC50, pseudovirus neutralization [35] was 10.2 µg/mL and the IC50 (µg/mL), pseudovirus neutralization [36] was 9.24 µg/mL. The IC50 (µg/mL), pseudovirus neutralization [37] was 0.854 µg/mL, the IC50, pseudovirus neutralization [38] was greater than 50 µg/mL and the IC50 [39] was 1.11 µg/mL. The IC50 [40] was 14 µg/mL, the IC50 [41] was 25.9 µg/mL and the IC50 (µg/mL), pseudovirus neutralization [42] was 1.07 µg/mL. It also gave an IC50, pseudovirus neutralization [43] greater than 50 µg/mL, an IC50, pseudovirus neutralization [44] of 0.153 µg/mL and an IC50 (µg/mL), pseudovirus neutralization [45] greater than 50 µg/mL. For the same substance, the IC50 (µg/mL), pseudovirus neutralization [46] was 0.122 µg/mL, the IC50 (µg/mL), pseudovirus neutralization [47] was 0.05 µg/mL and the IC50 (µg/mL), pseudovirus neutralization [48] was greater than 50 µg/mL. For the same substance, the IC50, pseudovirus neutralization [49] was 1.41 µg/mL, the IC50 [50] was 17.3 µg/mL and the IC50 (ug/ml), neutralizing activity [51] was greater than 10 µg/mL. The IC50 [52] was greater than 50 µg/mL, the IC50, pseudovirus neutralization [53] was greater than 50 µg/mL and the IC50 (µg/mL), pseudovirus neutralization [54] was 7.48 µg/mL. The IC50 (ug/ml), neutralizing activity [55] was greater than 10 µg/mL, the IC50 [56] was greater than 50 µg/mL and the IC50 (µg/mL), pseudovirus neutralization [57] was greater than 50 µg/mL. It also gave an IC50 (µg/mL), pseudovirus neutralization [58] greater than 50 µg/mL and an IC50, pseudovirus neutralization [59] greater than 50 µg/mL.
